Each block holds one binder with its values, some of them ahead of it.
Legend:
[1] = molecular target: T1, human bone sialoprotein (BSP) in plasma (human, UniProt P21815 17-317, phosphorylated serine at positions 31, 67, 74, 75, 94, 100, 149, 280; sulphated tyrosine; multiple complex glycosylation (as described for human BSP)); assay: titration and competition experiments
T1 construct: Native BSP as present in human plasma; also called human BSP; hBSP
T1 sequence (looked up): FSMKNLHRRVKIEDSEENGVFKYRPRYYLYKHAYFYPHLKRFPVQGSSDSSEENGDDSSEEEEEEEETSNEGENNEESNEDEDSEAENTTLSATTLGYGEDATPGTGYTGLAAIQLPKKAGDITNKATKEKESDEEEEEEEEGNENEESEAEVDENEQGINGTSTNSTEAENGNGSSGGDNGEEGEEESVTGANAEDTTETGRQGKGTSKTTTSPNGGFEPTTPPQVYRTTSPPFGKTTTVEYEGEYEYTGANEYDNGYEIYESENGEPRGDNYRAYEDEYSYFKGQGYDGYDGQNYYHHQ

[2] = molecular target: T1, human bone sialoprotein (BSP) in plasma; assay: screening of a phagemid single chain antibody library with peptide antigen and human BSP in plasma
Text: We screened differentially a synthetic human antibody library for an antibody reacting with synthetic peptide epitopes derived and common to rat or human BSP which we assumed being accessible in plasma. Moreover, we screened a proprietary synthetic human antibody library (mAB-Factory GmbH, Braunschweig, DE), prepared in accordance with DE 4122599 C2 and WO 93/01288 (PCT/EP92/01524), for phagemid-expressed single chain antibodies binding to BSP peptide epitopes with a soluble peptide antigen as indicated and with human BSP in plasma. A respective full human antibody (AF165R4.2-E2) specific for human BSP in plasma was obtained and reconstructed.

binding result [1]: binds
B1: humanized antibody anti-BSP_IDK3 (clone AF177.3) (antibody, V domains shown)
VH: QVQLQQSGAEVVKPGASVKVSCKASGYTFTDFYMHWVKQAPEQGLEWMGIINPANGNTIYAEKFQGRVTMTADKSTNTVYMELSSLTSEDTATYYCSSAYWGQGTLVTVSS
VL: DIVMTQTPPSSSVTIGQPASISCKSSQSLLDNDGNTYLYWYLQKPGQSPQLLIYLVSKRRSGVPDRFSGSGSGTDFTLKISGVEAEDVGVYYCVQGTHDPWTFGGGTKVEIKR
notes: Kappa light chain; also called Humanized mAB of IDK 1

binding result [2]: binds
B2: anti-BSP_IDK2 human mAb (clone AF165R4.2-E2) (antibody, V domains shown)
VH: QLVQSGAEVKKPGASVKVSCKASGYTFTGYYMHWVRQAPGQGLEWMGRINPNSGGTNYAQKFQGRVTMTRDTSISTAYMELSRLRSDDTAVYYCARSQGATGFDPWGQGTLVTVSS
VL: QLVLTQSPSASGTPGQRVTISCSGSSSNIGSSYVYWYQQLPGAAPKLLIYRNSQRPPGVPDRFSSSKSGTSASLAISGLRSEDEADYYCATWDGSLSGWVFGGGTKLTVLG
notes: The entries include a signal peptide that is marked only by underlining in a drawing; Lambda light chain; also called fully human anti-hBSP antibody

binding result [1]: binds
B3: chimeric version of the rat mAb anti-BSP_IDK1 (antibody, V domains shown)
VH: QVQLQESGAELVRPGSSVKISCKASGYTFTDFYMHWVKQGPEQGLVWIGRINPANGNTIYAEKFKTKATLTADKSSNTAYMQLSSLTSEDTATYFCSSAYWGQGTLVTVSS
VL: DILLTQTPPTSSATIGQSVSISCRSSQSLLDNDGNTYTLYWYLQRPTQSPQLLIYLVSKLRSGVPNRFSGSGSGTDFTLKISGVEAEDLGVYYCVQGTHDPWTFGGGTKLELKR
notes: The entries include a signal peptide that is marked only by underlining in a drawing; Kappa light chain; also called chimeric version of a rat mAB - IDK 1; human chimeric version of a monoclonal rat antibody
